# Measured values taken from US20060147378A1, “Azulene dimer-quenched, near-infrared fluorescent probes” (priority 2002, published 2006).
# Where no end group is shown, it is not given here. Alexa‑680 maleimide = near-infrared fluorochrome (Ex 679 nm, Em 702 nm) reacted with the cysteine; NIRQ750 = not defined here
# What was measured:
# [1] = biological target: T1, caspase-3 (Homo sapiens, UniProt P42574); test: Activation of NIRF probes by caspase-3 with or without inhibitor; assay type: biochemical
# T1 sequence (P42574 29-175 limits assumed): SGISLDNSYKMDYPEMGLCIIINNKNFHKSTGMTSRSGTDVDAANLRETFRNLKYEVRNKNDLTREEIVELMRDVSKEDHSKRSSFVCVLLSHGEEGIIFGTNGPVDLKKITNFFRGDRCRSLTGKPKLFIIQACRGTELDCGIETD
# T1 sequence (P42574 176-277 limits assumed): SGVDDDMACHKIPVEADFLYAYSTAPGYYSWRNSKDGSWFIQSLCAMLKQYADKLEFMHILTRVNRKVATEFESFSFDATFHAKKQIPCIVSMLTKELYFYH
# Procedure: The HPLC purified NIRF probes were tested against caspase-3 with or without an inhibitor of the enzyme in pH7.2 buffer (20 mM PIPES, 100 mM NaCl, 10 mM DTT, 1 mM EDTA, 0.1% CHAPS, 10% sucrose). Within 180 minutes, the fluorescence signal of NIRQ750-probe (probe 6, FIG. 7A) had increased about 4-fold while no activation was observed when the caspase-3 specific inhibitor was present (FIG. 7B). […] As expected, the fluorescence signal of both negative controls, (probe 7, FIG. 7A) with enzyme and probe 6 without enzyme, were remained unchanged.
# [2] = test system: T2, NIRQ750-GDEVDGSGC-Alexa-680 caspase-3 substrate probe
# T2 sequence: GDEVDGSGC
Substance,"activation (fluorescence signal) with caspase-3 specific inhibitor present ([1]; caspase-3 plus caspase-3 specific inhibitor, pH7.2 buffer)","fluorescence signal without enzyme ([1]; negative control, no enzyme, pH7.2 buffer)","increase of fluorescence signal ([1]; with caspase-3, within 180 minutes, pH7.2 buffer (PIPES, NaCl, DTT, EDTA, CHAPS, sucrose))",fluorescence signal increase (probe activation by enzymatic cleavage) within 180 minutes [2]
"probe 6: NIRQ750 anchored to N-terminus of caspase-3 cleavable peptide GDEVDGSGC, Alexa-680 maleimide on the cysteine residue (NIRQ750-GDEVDGSGC(Alexa‑680 maleimide); not fully specified (C-terminus); reading uncertain)",no activation,unchanged,about 4 fold,–
caspase-3,–,–,–,had increased about 4-fold
